This assay has as its target SOD1-His ( (human or mouse cDNA cloned), UniProt P00441 1-154). As to the kind of experiment: cell-based or functional assay.

Sequence of SOD1-His (P00441 whole entry): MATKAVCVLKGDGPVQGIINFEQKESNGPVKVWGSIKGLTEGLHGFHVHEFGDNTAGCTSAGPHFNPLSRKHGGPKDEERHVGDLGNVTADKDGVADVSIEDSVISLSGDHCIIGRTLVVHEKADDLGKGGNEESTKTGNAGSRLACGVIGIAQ

B1: YWHAZ-His (natural protein, UniProt P63104 1-245, looked up)
chain: MDKNELVQKAKLAEQAERYDDMAACMKSVTEQGAELSNEERNLLSVAYKNVVGARRSSWRVVSSIEQKTEGAEKKQQMAREYREKIETELRDICNDVLSLLEKFLIPNASQAESKVFYLKMKGDYYRYLAEVAAGDDKKGIVDQSQQAYQEAFEISKKEMQPTHPIRLGLALNFSVFYYEILNSPEKACSLAKTAFDEAIAELDTLSEESYKDSTLIMQLLRDNLTLWTSDTQGDEAEAGEGGEN
Consider B1, for which the “SOD1 activity of purified SOD1 after 15 h incubation with purified YWHAZ at ratios 1:1 and 1:3 (1 SOD1 to 3 YWHAZ protein amount); value at 1:3” value is about 2 fold.

These data come from publication PMC9966940, “Evidence and Metabolic Implications for a New Non-Canonical Role of Cu-Zn Superoxide Dismutase” (International Journal of Molecular Sciences, 2023).
